Legend:
[1] = Porphyrin binding to apo-protein, electronic absorption spectra ((CF3)4PZn loading)
Protocol: FIGS. 3A-3D. Biophysical characterization of apo- and holo-PS1. FIG. 3A: Electronic absorption and emission spectra of (CF3)4PZn/PS1 holo-protein and (CF3)4PZn in toluene solvent. […] FIG. 3B: Determination of KD by apo-PS1 titration into a buffer solution (100 mM NaCl, 50 mM NaPi, pH 7.5) of (CF3)4PZn with 1% w/v octyl-b-D-glucopyranoside. […] FIG. 3C: Circular dichroism (CD) spectra of apo- and holo-PS1 in 50 mM NaPi, 100 mM NaCl, pH 7.5 as a function of temperature. The transitions appear reversible based on the fact that the spectra are identical after cooling to room temperature. Units are in molar residue ellipticity. […] FIG. 3D: Pump-probe transient absorption spectra of (CF3)4PZn bound in the interior of holo-PS1 at 21° C. and 100° C. […] Inset exemplifies identical transient dynamics (primarily intersystem crossing from S1 to T1) at ΔAbs.=482 nm (scaled). Experimental conditions: solvent=50 mM NaPi, 100 mM NaCl, pH 7.5; excitation wavelength=600±5 nm; magic-angle polarization between pump and probe pulses; pump-probe cross-correlation of ˜250 fs.
FIG. 10. Absorption spectra of (CF3)4PZn/PS1 and (CF3)4PZn/PS2 complexes. […] Experimental conditions: buffer=100 mM NaCl, 50 mM NaPi, pH 7.5.
A 2-fold excess of the cofactor (CF3)4PZn was added from a 4 mM DMSO stock solution to a 50 mM NaPi, 100 mM NaCl, pH 7.5 buffer with apo-protein (Note that final DMSO concentrations were kept <1%.). Buffer solution of apo-PS1 protein was heated for 5 minutes at 50° C., (CF3)4PZn was then added from the DMSO stock solution, the resultant mixture was vortexed for 5 seconds, and placed back in the heat block at 50° C. for 15 minutes, with vortexing every 3 minutes. The protein/cofactor solution was then spun at 14000×g in a Amicon Ultra-0.5 mL centrifuge filter for 10 min, three times, replacing the buffer to 0.5 mL after each 10 min spin. Finally, the protein solution was spun for 4 min at 12000×g in an Amicon ultrafree-MC GV filter (UFC30GV0S). The holo-PS1 sample was then used for spectroscopic experiments immediately afterward, and diluted to an appropriate concentration if necessary. Binding of (CF3)4PFe was carried out in the same fashion, with the exception that the porphyrin was first dissolved in a stock of DMSO/CHCl3.
Electronic absorption spectra were collected using a Shimadzu UV-1700 UV-Vis spectrophotometer or Cary 5000 spectrophotometer. Steady-state emission spectra were obtained on FLS920P spectrophotometer (Edinburgh Instruments Ltd. Livingston, UK) in 1 cm quartz optical cells. The steady-state emission spectra were corrected using the correction factor generated by the manufacturer.

[2] = Binding of endogenous heme on expression in E. coli (absorption spectra); assay type: cell-based; settings: expressed in E. coli, Soret and Q bands at 410 and 550 nm
Protocol: FIGS. 18A-18B. enFold proteins are capable of noncovalently binding endogenous ligands in the cell. […] Inset: E. coli cultures of after induction). FIG. 18B: Denovo proteins from binary sequence patterning. Previous studies have only been able to incorporate heme exogenously, i.e. after expression and purification, heme is added to the purified apo-protein. See Patel et al, Protein Science, 18:1388-1400.
The computational method described here is capable of producing proteins that noncovalently bind ligands in vivo. We have observed loading of endogenous heme in a PS1 variant, where 7 terminal residues near the binding ligand site were deleted to allow incorporation of a heme ligand with its bulky, charged proprionate functional groups (FIG. 16). […] These apo-proteins remain competent to bind an endogenous ligand, for example heme (FIG. 17 and FIGS. 18A-18B). These proteins are the first de novo designed proteins to our knowledge that noncovalently bind heme in vivo.

Molecule | porphyrin loading ([1]; (CF3)4PZn, based on absorbance at 280 nm and 423 nm, 100 mM NaCl, 50 mM NaPi, pH 7.5) [%] | binding of (CF3)4PZn ([1]; narrow electronic absorption bands of the porphyrin) | binding / loading of endogenous heme [2] | binding / loading of endogenous heme ([2]; listed as PS1 deletion variant)
PS2: second designed porphyrin-binding protein with redesigned core (Ser94, Trp68), SEQ ID NO:7 (protein) SEFEKLRQTGDEIIQLLQRLREAIDKGDDDSLEQILEELEEAFQKHRQLFENRQEAADTEFAKQGDQWLQLFQRIREAIDKGDKDSLEQLFEESEQGIQKIRELAEKKN | 100 | bound (CF3)4PZn in a homogenous environment | – | –
PS1 D103-109: PS1 variant with 7 terminal residues near the ligand binding site deleted, SEQ ID NO:8 (protein) EFEKLRQTGDELVQAFQRLREIFDKGDDDSLEQVLEEIEELIQKHRQLFDNRQEAADTEAAKQGDQWVQLFQRFREAIDKGDKDSLEQLLEELEQALQKIR | – | – | high loading of endogenous heme | binds endogenous heme

Reference: patent US20200234789A1, “DESIGNED PROTEINS FOR LIGAND BINDING” (THE REGENTS OF THE UNIVERSITY OF CALIFORNIA, priority 2017, published 2020)
